Data taken from the DeepSol protein solubility set.

Assay: soluble on expression in E. coli; label from the status in PepcDB or PDB records

Soluble on expression in E. coli, soluble:
MSLEVYFSGTIERIIFENPSNFYRILLLEIDDTDAEDFDDFEIIVTGTMADVIEGEDYTFWGQIVQHSKYGEQLQISRYDRAKPTSKGLVKYFSSSHFKGIGLKTAQKIVDTYGENTIDEILQHPEKLEGIAGLSAKNREAFVSTLRLNYGTEMILAKLANYGIPNKLAFQIQDFYKEETLDVVENYPYQLVEDIKGLGFTIADQLAEELGIESQAPERFRAGLVHSLFQACMETGDTYVEARDLLEQTLTLLESSRPVELDPSQVAQELSYLIEEDKVQQIDTKIFDNSLFFAEEGIRSHLVRILEKGKQKSHDLETIQKHITTVEQELGIEYDNIQKQAICDAIQNKVFILTGGPGTGKTTVINGIIAVYALLEGLDFRKKSNLPILLAAPTGRAARRMNELTGLPSATIHRHLGMTGDDDTSHLEDYLDADFIIVDEFSMVDTWLANQLFSNISSNSKILIVGDSDQLPSVSPGQVLADLLHIPLIPQTRLEKIYRQSKESTIVTLASQIRQGILPADFTQKKADRSYFEIASGHIPATIEKILGAALRNGIPARDIQVLAPMYRGTAGIDAINQLMQDLLNPPQKDQLSFEAPQCHYRKRDRVIHLVNDAEINVFNGDLGAITDLIPGKYTESKQDEIVIDFDGNEVSYPRNEWYKIRLAYAMSIHKSQGSEFPVVILPITSASRRMLERNLIYTAITRAKSKLILLGELQAFDYATQHIGTARKTYLIERFSDLLENVEEKQQAVSETVTSSASEQSYILTEENWDRIPAMIGITDTDLKEIFGKEGHHHHHH
MSLSRLSEKKGFNFNIIKNDPLDGHKGTNIGSISLDNIAPVFIDIENQKAFVDIGGMHARAEVEKGVKWITDKSQVEGEEAKAYWLCWVTTERSEQGPYYAGVTACYLLVNKSIRRGYKSMPEHVNMMDKSMKHQFIIDQIGDDNKQILKEFLQNHNVEMWNNSSEELYRTFEEGHHHHTTDPNSSSVDKLAAALEHHHHHH
SFVPSQKTYQGNYGFHLGFLQSGTAKSVMCTYSPPLNKLFCQLAKTCPVQLWVSATPPAGSRVRAMAIYKKSQHMTEVVRRCPHHERCSDGDGLAPPQHLIRVEGNLYPEYLEDRQTFRHSVVVPYEPPEAGSEYTTIHYKYMCNSSCMGGMNRRPILTIITLEDSSGNLLGRDSFEVRVCACPGRDRRTEEENFRKKEVL
MSLKEELQLKQKLGGQKMVIQGDTLENSARRLLQERGVTMNDLAELVLFLQKDYIDNLTLDTCLESVDAVLTKREVHNAIITGVQLDILAEENKLLSPLQEILTEDEGLYGIDEIMALSIVNVYGSIGFTNYGYIDKVKPGILKELNAHDGEHVHTFLDDIVGAIAAAAASRLAHSQPDLSDITKEGGSHHHHHH
MSQPSGPPIGFSNPDYIPPKALDLLKPALTIRAPPEETGMLGELQEDVLQVLSLPCRHTNACLPACLQSLPILCSF
MSSKPKYVQDQEMIPGVYWVGIVDWMVRIFHGYHTDEGSSYNSYFIDDECPTVIDSVKYPFAEEWLSRIAACCPLDKIKYVVMNHAEGDHASSLKDHYHKFTNATFVCTKKCQEHLKILYGMEKATWLIVDDKYTLKIGKRTLKFIPVPLLHWPDSTFTYCPEDKILFSNDGFGQHYATSRRWADECDVSHVMHLFKEYTANILGLFSAQMRKALEVASTVEIKYILSAHGVSWRGDAMGLAIAEYDRWSKGQHCQKKVTVVLDSMYGTTHRMALALLDGARSTGCETVLLEMTSSDITKVALHTYDSGAVAFASPTLNNTMMPSVAAALNYVRGLTLIKGKPAFAFGAFGWSNRAVPDIVAELRDGCKADVYDEKGITFKFNYTEELLEQAYNAGVDLGKRAIAYCEKNAPKQ
MTSISSEYKLPEKTNTVSTNNSSLGKDEFLKILMTQVQNQDPLNPIDDKEFISQMATFSSLEQMMNLNTTMTQFVENQDPFTTYVDWMGKEVSWTDGKSATDKTGTVSSVKHFKGNYYLVLDDGTEISPANVMSVGQSSKLEHHHHHH
MSLLNKMRCSVSAEVYGEWNKKKNFVAPVYEKDEGQKEQLERILRQSFLFNSLDEKDLNTVILAMQEKKIEASTCLIREGDDGECLYIVQSGELNCSKLIDGEERVVKVVGPGDAFGELALLYNAPRAATVTSVSACDLWELGRDTFNAIVKDAATKRRSMYDSFLKSVHILDGMDAYERGKVADALRTEMFTDGAYIVRQGELGDVFYIVEEGSAVATKSFGPGQPPIEVKKYQAGDYFGELALINEEPRAANVIAHGICKVACLERKSFKRLMGSVQDLLSKKASDLLTMAEEGHHHHHH
MSLKLVEILVLGQVLRLNVPIEQEELLRQAARNLDILVSEMKEKTGLIQLDRVLSIVALNLSFELSQEKNKTAKIEEVLRTGIQQLDHSLENIRVTKEPH
MAHHHHHHMGTLEAQTQGPGSMSVSAAPSATSIDRYRRITKLGEGTYGEVYKAIDTVTNETVAIKRIRLEHEEEGVPGTAIREVSLLKELQHRNIIELKSVIHHNHRLHLIFEYAENDLKKYMDKNPDVSMRVIKSFLYQLINGVNFCHSRRCLHRDLKPQNLLLSVSDASETPVLKIGDFGLARAFGIPIRQFTHEIITLWYRPPEILLGSRHYSTSVDIWSIACIWAEMLMKTPLFPGDSEIDQLFKIFEVLGLPDDTTWPGVTALPDWKQSFPKFRGKTLKRVLGALLDDEGLDLLTAMLEMDPVKRISAKNALEHPYFSHNDFDP

Soluble on expression in E. coli, not soluble:
MGSDKIHHHHHHMRDQQLFLFGGGPPFTPMLCRQFVSCLKQSGPVALLYVPRPGSNWDDYAPIYTDALTANGVTDFFHFPLSARPTSEQLEQLAGSAGIIISGGETERYQQFIVGTPIGTIIQERFQHGVPVAGFSAGALLTPDECRIPVIDQRNGQALVLKGLGLLTDAVISVHYDTWQEETNLSDAFMKTASNFGYGLPERSGIHLKNGQLMQQEGPEVVLLRQKGEYI
MMDAKALWQRYQDWLYYHEGLGLYLDISRMRFDDSFVESLQSKFDKAFADMAALEKGAIANPDENRMVGHYWLRNPDLAPSPELTQEIVQTLEQIEAFADQVHTGAVHPPKESRFTDIISIGIGGSALGPQFVAEALSPDSPPLNIHFIDNTDPRGIDRVLSQINNLASTLVLVISKSGGTPEPRNGMIEVKKAYAAKNLDFSKYAVAVTGPDSNLDKVAKSEGWLARFSMYDWVGGRTSEMSAVGLVPAALQGIDIRAMLEGAKEMDDATRVADLKNNPAALLALAWYYSGKGKGGKDMVVLPYKDSLLLFSRYLQQLVMESLGKEKDLDGKIVYQGIAVYGNKGSTDQHAYVQQLREGVPNFFATLIEVLEDRQRKSPEIDPGVTSGDYLCGFLLGTRQALYENNRDSITVTIHQVNPRTVGALIALYERAVGLYASLVNINAYHQPGVEAGKKAAAVILDLQQKVMTVLQTERKALSISEIADKAGASEQIEAIYKILRHLHTNNRGVVLTGDLAKPGSLTVSLS
MGSDKIHHHHHHMIIKNRFTDEIEDAYLDYGSPPPEWQTVQNAAESLRSMPTDQLQSSAKSVFDYIRQNMDAILPRISRTTGKPMRYLRLEVDRSLSETGKIVVMDEPMFHDIPQYSVVYPNYQDPVSSLIVPSIFFLLNRVPVIVVPDRYAFLVPSLIYKAFASSGLPSGSFSISNGGIPEGFPSTRYAVSYSTDAMPEAAPGSGTLHADRGGPSMAVVWKDADVDFAAQNLVDSVIERHSIFLRSIVVHDEIFEYFVNRLKDLLPSIVAGDPEDLSTQLGPCASDIDLIRSLNMIAEARRARSIIYSKGPQGNIITPTIINGEITDMDDMVYTPVYILHHASSMEEVFELVSKVGPEALALYSSDSMLFRMVLSRTSAKYIGLNSYPEISYKPPISIPRRGLYL
MEVVIIAFLTQKEFEDLGFDEVEDFEKMEKRASHAVNLYCRNRYDYKDLKKEIALVQKAVKRAIAYQIAYLNDSGVMTAEDKQSFAGISLGRTSISYTVGHGQGSQQKTLADRFNLCLDAENELLAVGLGYTGISYDR
EQSAYRIHSAYMVGGGGSITRDTYLSPLRYGGWTLNLLGEKTFPLKASDSRWMIRTGHELDFALMDNPANNAHFYSLLYNGSAAALYRLGAKHLRAAWMDNLRLAFGPGLEIGLGGIYSTRNGNNPATLKLYTNAIAQASIGYYVPSETFPLYFRLLSQINLFGIAYGNGFGESYYENFLLNNGIAGSLHFTYPGKFTRFTTLITADIPIRNFCTLRVGYRYSHLGSSLNALDTRIHSHTAFIGFVTEFYRFRGRKAMNTGRRTSLYYHD
MLVCNPYEVVIHGTTSSGKIFRPSDWAERLCGILSSFTKDHRLSYSKWVRPILVDNIRCVAVDKKLETDNPQMFRFLMDFAADNDLRVIDCKALLEEREQGGQNNPADEHVMLAQAIEEKHAAEKAQEQTASGASYVLREIGADDTATAFAALSVLRSALTDINRFTEQINKVQRPQGYRLLGIFEEGKHNAVAVCGFREACTLASGRHIHIDDIVTLPQSRRKGYASRLLEEVRKIGAETGVTKIHLNVHVNHDRADAHRLYFKNGFEICAYHFRCDPK
KVILKEDAEMLDEVVVTGYGMSQKRSLMTNSISKLDDKVLQNAAMSNAAQSLQGTVSGLRVTNTSGKPGSSPNIVLRGGASINKNLEGPLVVVDGLVRSMDDINPSDIESIQVLKDAASTAIYGARANNGVILVTTKKGVEGR
MGSDKIHHHHHHMEQIIRIGMDTSKHVFQLHGVNAAEEVVLRKKMRRKEMVAFFERAAPTVVALEACGGSHHWARLLEALGHDVKLIPPQYVKPYVKRGKNDAADAEALCEAVSRPTMRFVRVKTTDNQAALMLVGMRDRLVRNRTQLANAIRGYAAEFGLIAATGTSKVRSLLERIATDETLPELARELFGLHGREYDRLEDEIEKVEARLMAWHRTNECSRRLTRIPGVGPIGALMMVMKTPAPETFRSGRHFAAWLGLTPKDHSTAGRVRLGVITRAGDENLRSVLVAGATAVLRHVREDRGKNASPWLLDMLNRKPPKLVAVALANKIARVAWKLMVTGERYNPNAALSAYGQAA
MGSDKIHHHHHHMRGVLTMIRLFKAIPELELPVYSGEDSPVDGTEKTTGFLISNHVPGEQVEETLLVASAEIKTSQTGREWLQFTFNSPSGSCKGKQWLNQGTAEEAMRPYLETGIVHVSAKVDEYPVDSGNKSLTVQTVKAVHDQSGTAYLPQMPAGESAKDYRDQLIGLIEKMETPLRQVAHRVVSAYWDDFSTRPAALYHHHAYIGGLLKHTACMMTIGFGICQSERPDLTLLQCIQEAEADHKNDLFQAGERDMRQFAWDDSFDALYQSARSIALLNERPHQDELLLGILLHDIGKIFEYTHLGASGDRFSRLVQTEPASEKLSGIALDPNGVLIGHMPYGCFVLEQALQTEAVRLPVDQYHRLMHMILSHHGKKEWGSSVTPQTTDAWYLHAIDLLDARKEKWRQSQLT
MTHPRDSIALTSDSLVLRFLSESGIPISDNNKVRLLKSGREKFIDLFSAIRDAKHHIHLEYFNFRNDSIANALFDLLAEKVKEGVEVRAMFDAFGNWSNNKPLKKRHLKKIREQGIEIVKFDPFTFPYINHAAHRDHRKIAVIDGEVAYTGGMNIADYYINGLPKIGTWRDMHMRIEGDAVNDLQEIFLTIWNKETKQNIGGEAYFPKHKEQSDSTNVVVAIVDRTPKKNSRMLSHA
MDLFSQFFQENQKKFLSFAYSYTRNKAAAEDILMEAMVSLWENREKWEKDSNLHALLLTIIKNKSLNYLEHEQVRMKAEEAINTHKQRELDLRISTLEACEPATIFDTEIQRIVYKTLEQLPEQSRHIFILSRYHNTPNKKIAEQLGISIKSVEFHITKTLKLLRLELKDYLISLLF
